In paper PMC5897525 (Nature Communications, 2018):

Biological target: T1, natural Fel d 1 (Felis catus, UniProt P30438;P30440)
T1 construct: Fel d 1 Chain 1, cat, of the natural Fel d 1 heterodimer; Fel d 1 Chain 2, cat, of the natural Fel d 1 heterodimer; also called nFel d 1; source: bought: Indoor Biotech, Catalog #LTN-FD-1
Experiment: SPR; Biacore T200; REGN1909 (94-163 RU) captured on a goat anti-human Fcγ coupled surface; nFel d 1 or rFel d 1.mmh injected in 2-fold dilutions; 10 mM HEPES, 150 mM NaCl, 3 mM MgCl2, 3 mM CaCl2, 0.05% P20, pH 7.4; 1:1 binding model with mass transport limitation
Conditions: both partners purified

- binding result: binds
B1: REGN1909 (antibody, V domains shown)
VH: EVQLVESGGGLVQPGGSLRLSCAASGFTFSSYAMSWVRQAPGKGLEWVSAISGRGYNADYADSVKGRFTISRDNSKNTLYLQMNSLRAEDTAVYYCAKLEYFDYWGQGTLVTVSS
VL: DIQMTQSPSTLSASVGDRVTITCRASQSISSWLAWYQQKPGKAPKLLIYKASSLESGVPSRFSGSGSGTDFTLTISSLRPEDFATYYCQQYNSYPLTFGGGTKVEIK
